Source: the DeepSol protein solubility set

Experiment: soluble on expression in E. coli; label from the status in PepcDB or PDB records

With “MDHLKHLQQLQNIERIVLSGIVLANHKIEEVHSVLEPSDFYYPPNGLFFEIALKLHEEDCPIDENFIRQKMPKDKQIKEEDLVAIFAASPIDNIEAYVEEIKNASIKRKLFGLANTIREQAHH” as the sequence, how does the “soluble on expression in E. coli” value read?
The value was “soluble”.

For “MLVKGNEILLKAHKEGYGVGAFNFVNFEMLNAIFEAGNEENSPLFIQASEGAIKYMGIDMAVGMVKIMCERYPHIPVALHLDHGTTFESCEKAVKAGFTSVMIDASHHAFEENLELTSKVVKMAHNAGVSVEAELGRLMGIEDNISVDEKDAVLVNPKEAEQFVKESQVDYLAPAIGTSHGAFKFKGEPKLDFERLQEVKRLTNIPLVLHGASAIPDNVRKSYLDAGGDLKGSKGVPFEFLQESVKGGINKVNTDTDLRIAFIAEVRKVANEDKSQFDLRKFFSPAQLALKNVVKERMKLLGSANKI”, which “soluble on expression in E. coli” value is on record?
Its value is “soluble”.

For “MCWYGDPGATYRYSGVSHQPSPWHEVLADLRTRIEAFSGHVFNAVLCNRYRSGRDSMGWHADDEPELGERPFIASLSLGAERLFRIRHRGTGRTLDVPLRDGDLLLMGGELQSHWRHCVPRTARPCGERINLTFRRVVPRSLEHHHHHH”, which “soluble on expression in E. coli” value is on record?
The value was “not soluble”.

With “MGSDKIHHHHHHMKCLLCGQTMKTVLTFSSLLLLRNDDSCLCSDCDSTFERIGEENCPNCMKTELSTKCQDCQLWCKEGVEVSHRAIFTYNQAMKDFFSRYKFDGDFLLRKVFASFLSEELKKYKEYQFVVIPLSPDRYANRGFNQVEGLVEAAGFEYLDLLEKREERASSSKNRSERLGTELPFFIKSGVTIPKKILLIDDIYTTGATINRVKKLLEEAGAKDVKTFSLVR” as the sequence, how does the “soluble on expression in E. coli” value read?
Its value is “not soluble”.

With “MAHHHHHHMQSALRSFSEAAVGLGTSQEKLAAFIAFTNQEKLRVPQLALLRELRRQLVAEEAIAERGRHHQQPDYGVSKRSSNASAAYQDSGDQNAHLSDLRKVNVLCSSKTEKSLQCSKTLSLNHQRGDSTTGAHKTRFQSPRFSSLKSVPFAQAGAANDEYDEDIRGFGARDFAPTPTPSGKLPYKPRDVCLLNSSYFANRSIRSDGSNPCGAPLPTSSPGTPSPSWRGAMTATAFAKLPAPSQQPLLAVDSSLGTVIDVDSEFSLVREAEDTAESRFAPKQDLSIVSMNSSQLELLNIAELAASSSEAALAQPPAAAVLTGIREKVADGSLSKHTVTLFHESNEKRSRGVAASTAAEVAVASVTASIAERKPAPSSQPSTQRGLCGYTNPGNFASLLVPNVLARPVSPPAERTVAPFSLRVAPASTSPSDKEKAVTLEQQEGMASTTAVTIGSTDSAGPAAASVASRLPSPPLITQAEENDGFVYYCANPSHSVIDSYAGRRKLLAVTVKL” as the sequence, how does the “soluble on expression in E. coli” value read?
The value was “not soluble”.

Which “soluble on expression in E. coli” value does the source give for “MSLNGNATDSSSSTSSMTENSDGQKQNNEWFHGVLQRQDADELLVKPGSFLLRASEVHGKMSMILSVRHDGKLHNIAVNSDTGENFWFEGHREKSIDQLVQWHMTTSTPITKTSGVKLKYPIGKADWIISHENVIFIKKLGEGAFGEVSLAECEIGGRKVETAVKTMRCQMTRDTRAAFMKEARLMRKYSHPHIVRIIGKIIVKHLPKVGLAVDAHPLMIVMEMCPHGSLLSFLRKNKGKTTLSERLRFCIESADGLAYLEKKQCLHRDIAARNCLLSITDQIKISDFGLSDDKRTEMHDDTLDKVPVKWLAPEVMQDKLYSLKSDVWAFGVLMWEIYADGADPYPGMTNLVTRAKIFCDDYRMTFPETTPPTISEIALKQCWAKLPSDRATMKTVHHKLKDLSMPMSDVSFSMKMKR” here?
The value was “not soluble”.

Which “soluble on expression in E. coli” value does the source give for “MGKRKSKRKAPTKAKAVMPLDTQFNCPFCNHERVCEVKMDREKNVGYISCRVCSEDFQTNINYLSEPIDVYSDWVDACEQANNA” here?
Its value is “not soluble”.

For “MAMSNMTYNNVFDHAYEMLKENIRYDDIRDTDDLHDAIHMAADNAVPHYYADIFSVMASEGIDLEFEDSGLMPDTKDVIRILQARIYEQLTIDLWEDAEDLLNEYLEEVEEYEEDEE”, which “soluble on expression in E. coli” value is on record?
The value was “soluble”.

For “MKQPKVSVIVTCYNYATYLEGCLASILNQTYQDFELVIINDGSTDNTDEVISRFLDNDKVRYINQKNTGQAIATNNGIAAAAGELIAFLDADDLWEPTKLEKQVRLFNRDSIGVVYSRIRFMDAEGCTLDMQLEGKYYTPRSGRVTDALLFENFIPYSSTVVRKECFDKFGMFNPEYKNGLDWDLWLRISREYEFDFVDEYLLIYRIGHPGQLTSNVERSVRCADLIFDRFLEENPGIVPDSVVRKAMAYSYCRRGNQFRKIDRKRSNGFFLNALAKNPAEIGAYVGLVKNFLNMLEHHHHHH”, which “soluble on expression in E. coli” value is on record?
Its value is “not soluble”.

Which “soluble on expression in E. coli” value does the source give for “MADAEVIILPKKHKKKKERKSLPEEDVAEIQHAEEFLIKPESKVAKLDTSQWPLLLKNFDKLNVRTTHYTPLACGSNPLKREIGDYIRTGFINLDKPSNPSSHEVVAWIRRILRVEKTGHSGTLDPKVTGCLIVCIERATRLVKSQQSAGKEYVGIVRLHNAIEGGTQLSRALETLTGALFQRPPLIAAVKRQLRVRTIYESKMIEYDPERRLGIFWVSCEAGTYIRTLCVHLGLLLGVGGQMQELRRVRSGVMSEKDHMVTMHDVLDAQWLYDNHKDESYLRRVVYPLEKLLTSHKRLVMKDSAVNAICYGAKIMLPGVLRYEDGIEVNQEIVVITTKGEAICMAIALMTTAVISTCDHGIVAKIKRVIMERDTYPRKWGLGPKASQKKLMIKQGLLDKHGKPTDSTPATWKQEYVDYSESAKKEVVAEVVKAPQVVAEAAKTAKRKRESESESDETPPAAPQLIKKEKKKSKKDKKAKAGLESGAEPGDGDSDTTKKKKKKKKAKEVELVSE” here?
The value was “soluble”.

Which “soluble on expression in E. coli” value does the source give for “MQAEKLAYYPFTSEASAYVGNLGISLESLLNSRAYRAARARGIERVKEALEGEIKKSPVSGEAQVLSELLSYPFARMLVACVDDQLFTRRYALAEAKAAYTFLRNENPDFLLEFGDDFGISADSQDSYFSMHFTDYIRFSNSLKDPSWKLTNRQLRAGKIKITKEEFSRLLEEAVRERIEQSFPVPEIPPEVSSFCSPYAAEIKDKFEVQKKKFGSTDFGAVKPELFPPCIAYALANVQGGVNLAHSMRFAMTSFLLNVGMSVDEILNLFNISPDFNAEKTLYQIEHIAGATGNTYKPPACDTMRTYGNCVGKDRLCEKISHPLGYYEKKVFIKNKEGEEAQGKEQGKEKDDGKEKENGKESEVKKKKEKLEHHHHHH” here?
Its value is “soluble”.

With “MKDFNQRFRDLHKLRQRARKENHEQVVEEDRRSKLPKNHEAKKERDQWQVKELQDRKAAEDKGLDYERVRSLEMSADVTEKLEQKRKRKKNPDQGFTSYEDMTLRQHTRLTAALDPDLDSYKKMRECVGGEQFYPTADTLIHGNHYPTTAAMDKLTKDVHGQVKRREQYHRRRLYDPDAPIDYINEKNKKFNKKLDKYYGKYTEDIKDDLERGTAI” as the sequence, how does the “soluble on expression in E. coli” value read?
The value was “not soluble”.

Which “soluble on expression in E. coli” value does the source give for “IPADELFSRDALRKVEDIRNKTKNKSYIRKALKKPWNILVGSLPVGFDFPARIIAEIVDAPKLSLEGLVKKANYYLSEGADIVDIGMVAGETNVKFLDVIPEFREVLGREVPISLDSLNAKELEAGLDFVDMILSVDWSNVEDLVTDKPVVLIPTDMKNGYFPLNPRDRVESLEKLKEKALSLGYKRIIADLILEHYPGFSRSIVAFSLYRDRNREDIMLAGVGNVTEMTDADSPGINALLAGIASELRISMLLTTEVSRKCTGSIRELRRAIDMTLLGGVKDVGLNLLLLKEKKDKGLRFEISKNIVEAKRKEVKLEDTYFRIFVDNGKIYVNAYKGMNLVITIVGNEPNEIMDTILDYFSLSPRHAFYLGRELEKAYTALKLRRSYAQEEELFRDFYTK” here?
Its value is “not soluble”.

For “MECETDEQKQGSDENMSECETSSVCSSSDTGLFTNDEGRQGDDEQSDWFYEGECVPGFTVPNLLPKWAPDHCSEVERMDSGLDKFSDSTFLLPSRPAQRGYHTRLNRLPGAAARCLRKGRRRLVGKETSINTLGTERISHIISDPRQKDFWLPSAGKRERNQFNPLSPLYSLDVLADASHRRCSPAHCSARQANVHWGPPCSRVIKRKRKPVATASLSSPSAVHMDAVEPTTPASQAPKSPSSEWLVRTSAAEKATDATTATFFKMPQEKSPGYSLEHHHHHH”, which “soluble on expression in E. coli” value is on record?
The value was “soluble”.

Which “soluble on expression in E. coli” value does the source give for “MGSDKIHHHHHHMSNKLTYIVASGDTYTSIVNKINQSTPLTVSQLADANPSIQANQLQIGQALDIPLSTDGLIPDDNPALLTPAAEFMGYWYPYSASCPKNATLSVALYGWGPQKVIEWGKQADVQSHLNGEKYLSFGGGSESGKFTEQALNEITTAITQGQIKGYDGIAYDVEVADANLGAQFANSFEAAKACGFKVLVTISHSAPYDVADKDQLMKSFFINPHIDILSPQLYSKGDESQNDYALTSGSSITWRDYASTKAAIVPSIVHASYYEAAKIYFKNQGVELSGYLQWK” here?
Its value is “not soluble”.

For “MSYERRKTREVSVGTVKIGGENPISIQSMTNTDTRDADATIAQIKRLEEAGCDIVRVAVPDIKAAKNIAKIKSSVNIPIIADIHFDYKLALEAIKQGVDGIRINPGNIGSIERVKMVVEKCKERNLKIRIGVNGGSLEKELLKKYGSATAEALVESAMGHIKILEDLDFHNIVISLKSSDIYKTVDAYELISKKVDYPLHIGITESGSVHKGTIKSSIGVGALLLKGIGDTVRISLTGDPVEEVIVGKQILRSLGLLNDKIKVISCPTCGRCNIDLISVVNEVEEKIGSMEKNITVAIMGCAVNGPGEAREADIGIAGGKGEGLLFKKGEIVRMIDGNKLVDELLEEIEKL”, which “soluble on expression in E. coli” value is on record?
The value was “not soluble”.

For “MTYIALIGDIIQSKQLTDRSKVQKTLAAYLDDLNKTFAPYIISKLSLTLGDEFQGLFQVDTPIFHLIDLINHHMDIPIRFGVGVGSILTDINPDISIGADGPAYWHAREAIRYIHQKNDYGNTTLALRTGHHNQDDVLNSLLAAGDAIKANWRASQWEIFDTLLDLGIYEEYFDQQRLGKQLSLSSSALSKRLKSSHVKIYLRTRQSALNCLKQIKEETDD”, which “soluble on expression in E. coli” value is on record?
The value was “not soluble”.

For “AHHHHHHGSKRVNAFNDLKRIGDDKVTAIGMGTWGIGGRETPDYSRDKESIEAIRYGLELGMNLIDTAEFYGAGHAEEIVGEAIKEFEREDIFIVSKVWPTHFGYEEAKKAARASAKRLGTYIDLYLLHWPVDDFKKIEETLHALEDLVDEGVIRYIGVSNFNLELLQRSQEVMRKYEIVANQVKYSVKDRWPETTGLLDYMKREGIALMAYTPLEKGTLARNECLAKIGEKYGKTAAQVALNYLIWEENVVAIPKASNKEHLKENFGAMGWRLSEEDREMARRCV”, which “soluble on expression in E. coli” value is on record?
The value was “soluble”.

Which “soluble on expression in E. coli” value does the source give for “MKYFAYGSNMSLLRLKERVPSSKKLGIVTLKKHQLRFNMSGDDDSGKCDSFETNNHEDIVIGALFEIDENEKDALDRAESLGDGYDEKFVFVQSNSGEVFEALTYYAIKIDASLQPYSWYLNHVIIGAKETKLPTDYLAIIESVECIEDPDTSRDAKQRAMYVLEHHHHHH” here?
The value was “not soluble”.

Which “soluble on expression in E. coli” value does the source give for “MGSDKIHHHHHHMAKTIRDESTASAYWAAVNTFCALKDVHVIADAPVGCYNLAGVAVMDYTDAIPYLENLTPTSLTEREISSSGSSQIVQETIEKLMGSGKQLILVSSAESEMIGSDHQHMLAMKYPSVRFFASDSLGENEWQGRDRALAWLFDQFDDGQPSQIEPGTVSIIGPTYGCFNSPADLAEVKRLVTGAGGRVAHVYPFESKAAEITKLKNSAAIVVMYREFGAALAEKLGRPVLYAPFGIEETDRFIGKIGRLCGTPEQATRFIAEEKRTTLSPVWDLWRGPQSEWFPTIRFGVVASKSYADGIKHVLGDELGMQCLFSLDSAEVDNNAVRKEIVQKQPQFLYGRMPDKIYLAEADAKSRFIPAGFPGPIVRRALGTPFMGHSGVVWLVQEIVNALYDTLFNFLPITRRQQAAAPTKPLKWTPEANAILDGIVRKAPFISQISFGRELKRKAENLAASRGADTVTPDILQQLG” here?
The value was “not soluble”.

For “MNHQARMRWRCRRGMLELDIVLQRFIDNHYEQLDEHQLELFEMLLSLSDHDLWNIIIGNTKEPNNQFQPVLKLLQENLEHHHHHH”, which “soluble on expression in E. coli” value is on record?
The value was “soluble”.
